Assay results taken from the supplement of paper PMC10567573.

B1: SOAT2 (parent)
chain: SLGKQKVFIIRKSLLDELMEVQHF
B2: CDC25A (parent)
chain: KPIVPTDGKRVIVVFHCEFSSERG

Variants of: B1
Experiment: protein stability index of a GFP-peptide fusion (GPS, HEK-293T) (PSI 1-6); higher = more stable
Conditions: c terminus: a fixed tail appended
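Also: lentivirally expressed fusions sorted by FACS into six bins by GFP to DsRed ratio, PSI derived from sequencing read proportions per bin multiplied by bin number.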

Protein stability index of substitutions, site by site:
S13: Y 2.52 | R 2.86 | E 2.55 | D 3.49 | V 1.88 | P 1.99 | W 1.73 | I 3.3 | M 2.22 | L 2.24 | Q 1.69 | G 1.33 | K 1.67 | A 1.43 | C 2.25 | F 3.49 | N 2.86 | H 2.48 | T 2.4
Q5: F 3.55 | L 3.31 | H 2.05 | S 2.73 | P 2.87 | Y 1.85 | G 3.96 | N 2.51 | D 2.01 | I 2.44 | R 3.01 | A 2.54 | C 2.75 | W 2.93 | T 2.23 | M 3.06 | V 2.91 | K 2.63 | E 2.04
V7: H 1.59 | F 2.56 | Y 2.33 | I 3.05 | T 2.16 | E 1.67 | P 1.49 | S 1.74 | R 2.16 | N 1.92 | C 2.4 | G 1.82 | A 1.72 | D 1.48 | W 2.34 | Q 1.82 | M 1.82 | K 2 | L 3.44
I10: W 1.89 | V 2.52 | L 2.38 | S 1.8 | A 1.9 | F 3.02 | R 1.69 | G 1.91 | D 2.41 | N 1.72 | T 1.98 | K 1.48 | C 2.69 | H 1.65 | Q 1.87 | Y 1.48 | M 3.04 | E 1.47 | P 2.08
L14: F 2.52 | N 2.26 | E 2 | G 2.2 | R 2.64 | D 2.19 | I 3.27 | A 2.72 | Q 1.64 | V 2.22 | Y 2.03 | S 3.11 | C 1.85 | M 2.25 | T 2 | K 1.69 | P 2.43 | H 2.86
L15: M 2.37 | N 1.88 | S 2.23 | K 3.07 | Y 1.52 | I 2.35 | F 3.01 | V 1.78 | P 1.56 | T 1.54 | H 1.78 | W 2.68 | G 2.5 | D 2.38 | Q 1.8 | C 2.08 | E 2.29 | A 1.6 | R 2.41
K4: C 2.88 | M 2.15 | W 2.19 | T 2.4 | I 2.17 | V 2.8 | S 2.25 | A 1.55 | L 2.54 | Q 1.96 | Y 2.8 | H 2.31 | F 2.22 | D 1.91 | N 1.78 | P 1.74 | E 1.52 | R 2.29
L2: F 3.72 | E 1.75 | M 2.25 | D 1.4 | A 2.94 | T 3.3 | K 1.44 | Y 2.69 | S 3.5 | V 3.51 | R 2.42 | C 3.02 | N 2.58 | H 3.11 | Q 2.21
I9: F 2.41 | P 2.1 | G 1.79 | A 1.99 | R 1.8 | M 2.21 | V 2.84 | T 1.84 | H 2.22 | W 3.62 | S 2.15 | Y 2.85 | D 2.18 | E 1.76 | Q 1.89 | L 1.21 | C 1.76 | K 1.58 | N 2.02
K6: Y 2.67 | N 1.6 | F 2.71 | H 1.97 | L 2.24 | A 2.08 | W 2.47 | I 3.06 | S 2.46 | P 1.96 | R 2.74 | M 3.33 | G 1.99 | Q 2.98 | E 2.05 | C 3.68 | D 1.67 | T 3.25 | V 1.81
S1: P 2.99 | T 4.03 | H 2 | K 2.94 | L 3.27 | E 2.99 | M 2.1 | Y 1.34 | N 2.68 | F 1.92 | V 2 | C 2.9 | I 3.6 | R 1.94 | Q 2.6 | A 2.41
G3: M 3.27 | W 2.5 | L 2.29 | N 2.07 | A 2.12 | D 2.12 | S 2.73 | E 1.94 | Y 2.76 | V 2.97 | F 2.29 | P 1.76 | R 2.98 | H 3.41 | C 3.08 | K 1.74 | T 2.83 | I 3.27
K12: I 2.77 | H 3.61 | A 2.44 | W 3.49 | V 3.02 | T 3.09 | L 2.18 | E 2.99 | N 2.32 | R 2.75 | F 3.49 | M 2.13 | P 1.62 | S 1.23 | D 3.43 | Q 2.96
R11: M 1.53 | C 2.61 | Q 2.54 | A 2.83 | I 2.78 | F 1.78 | H 2.43 | W 2.53 | G 3.02 | D 2.22 | P 1.78 | V 2.19 | S 2.11 | T 2.61 | L 2.96 | K 1.77 | E 2.99 | Y 3.21
D16: E 2.39 | A 1.7 | N 3.3 | P 2.02 | L 3.27 | R 4.61 | M 3.67 | F 2.19 | H 2.86 | C 2.63 | G 2.76 | S 2.09 | Q 2.44 | I 2.98
F8: S 2.03 | E 2.58 | Y 3.07 | G 1.93 | D 2.12 | C 2.49 | N 1.5 | M 1.58 | P 1.66 | H 1.71 | L 2.02 | Q 1.97 | I 2.15 | W 2.79 | K 1.88 | R 2.36 | T 1.32 | V 1.6 | A 1.76

Variants of: B2
Experiment: as above
Conditions: c terminus: a fixed tail appended

Protein stability index, by site and new letter:
E22: Y 3.49 | M 2.29 | W 2.99 | T 2.75 | P 2.64 | Q 1.96 | I 2.65 | S 3.61 | R 2.68 | N 2.29 | K 1.99 | V 2.03 | L 3.4
R23: Q 2.61 | I 3.36 | K 2.67 | V 3.12 | E 2.14 | T 3.36 | W 1.55 | S 2.19 | N 3.72 | F 3.05 | G 1.6 | H 1.84 | C 2.82 | M 2.92 | L 2.44 | D 2.52 | Y 2.99 | P 2.35
G24: Q 3.67 | K 1.44 | L 1.85 | Y 2.74 | P 2.66 | A 1.29 | M 3.17 | E 1.93 | W 3.51 | D 2.09 | T 3.03 | C 2.7 | H 3.36 | V 2.56 | R 3.92 | N 2.29 | S 2.92 | I 4.86
